In US20160115235A1 (ARES TRADING S A, published 2016):

T1: human CXCR5 (human, UniProt P32302 1-372)
T1 construct: Full length, on stably transfected cells (HEK-293, L1.2, R1610 and others), made with or without a C-terminal tag, or native on primary human B cells; also called hCXCR5; BLR-1
T1 sequence: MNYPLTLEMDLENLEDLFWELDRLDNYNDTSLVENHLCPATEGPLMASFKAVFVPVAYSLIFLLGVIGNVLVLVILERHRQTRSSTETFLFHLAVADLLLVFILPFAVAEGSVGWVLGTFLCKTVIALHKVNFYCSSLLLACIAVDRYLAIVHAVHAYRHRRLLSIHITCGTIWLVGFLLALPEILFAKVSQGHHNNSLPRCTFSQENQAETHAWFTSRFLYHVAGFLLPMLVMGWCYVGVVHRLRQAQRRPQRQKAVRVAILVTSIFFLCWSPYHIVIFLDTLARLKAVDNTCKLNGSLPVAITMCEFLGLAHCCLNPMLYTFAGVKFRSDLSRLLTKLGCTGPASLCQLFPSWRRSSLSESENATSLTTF

T2: human CXCR2 (human, UniProt P25025 1-360)
T2 construct: whole, on cells; Native on the granulocyte population of human whole blood
T2 sequence (looked up): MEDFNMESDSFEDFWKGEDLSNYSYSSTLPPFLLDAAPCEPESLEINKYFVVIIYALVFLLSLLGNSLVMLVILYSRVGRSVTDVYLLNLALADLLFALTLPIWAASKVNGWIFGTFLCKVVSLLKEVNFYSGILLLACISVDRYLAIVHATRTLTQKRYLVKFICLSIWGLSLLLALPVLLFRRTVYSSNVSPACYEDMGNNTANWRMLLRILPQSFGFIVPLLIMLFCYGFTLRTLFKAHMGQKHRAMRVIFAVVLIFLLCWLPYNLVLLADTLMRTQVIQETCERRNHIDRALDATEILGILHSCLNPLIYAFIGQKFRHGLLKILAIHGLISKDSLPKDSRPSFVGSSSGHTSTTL


Tests used:
human CXCR5 [1] = target: T1, human CXCR5; experiment: flow cytometry, Alexa Fluor 647 labelled mAb on CD19-gated human B cells in whole blood
Experimental: (§1) 40C01-VH1-Vk3 and VH2-Vk3 variants were labelled with Alexa Fluor 647 dye using monoclonal antibody labelling kit from Invitrogen (Cat #A20186). Blood was collected in sodium-heparinised tubes and rested for 2 h at RT. Sodium azide (NaN₃) was then added to whole blood to a final concentration of 0.01%. Serial 1 in 3 dilutions of Alexa-Fluor 647 labelled-mAbs ranging from 60 μg/ml to 3 ng/ml were added to blood samples and incubated for 30 min at RT. Phycoerythrin (PE) labelled anti-CD19 (BD Pharmingen, cat#555413) and anti-human CXCR2 (R&D Systems, cat #FAB331P) mAbs and their respective isotype controls were used for gating B cells and monitoring CXCR2 expression on granulocytes, respectively. Labelled red blood cells were then lysed using the human erythrocyte lysing kit from R&D Systems (Cat # WL1000) and the blood cells resuspended in FACS buffer (PBS-1% BSA, 0.1% NaN₃) and analysed by flow cytometry on FACS Calibur 3 (BD Biosciences). The EC₅₀ and ECB, values were calculated by plotting the FL4 fluorescence (emission of Alexa Fluor 647 dye) as a function of the antibody concentration. […] No binding of the two 40C01 variants was detected on the granulocyte population which expresses CXCR2 (neutrophils).

human CXCR2 = target: T2, human CXCR2; experiment: flow cytometry, Alexa-Fluor 647 labelled mAb in human whole blood
Experimental: as §1

human CXCR5 [2] = target: T1, human CXCR5; experiment: flow cytometry, Alexa Fluor 647 labelled mAb on HEK-293 cells stably transfected with human CXCR5; 40C01-VH1-Vk3, Alexa Fluor 647 labelled, HEK-293 cells with human CXCR5
Experimental: (§2) Anti-CXCR5 40C01-VH1-Vk3 and VH2-Vk3 variants were labelled with Alexa Fluor 647 dye using monoclonal antibody labelling kit from Invitrogen (Cat #A20186). Binding of labelled mAbs to HEK-293 cells stably transfected with human CXCR5 was examined by a direct immunofluorescence assay. A total of 1×10⁵ stable HEK-293 cells over-expressing human CXCR5 were incubated with 1 in 3 serially diluted Alexa Fluor 647 mAbs ranging from 60 μg/ml to 0.33 ng/ml in FACS buffer (PBS containing 1% BSA and 0.1% NaN₃) for 1 h on ice. Cells were washed twice with FACS buffer and analyzed on FACSCalbur flow cytometer (BD Biosciences).

human CXCR5 [3] = target: T1, human CXCR5; experiment: flow cytometry, Alexa Fluor 647 labelled mAb on HEK-293 cells stably transfected with human CXCR5; 40C01-VH2-Vk3, Alexa Fluor 647 labelled, HEK-293 cells with human CXCR5
Experimental: as §2

| Binder | EC50 (human CXCR5 [1]) [nM] | binding result (human CXCR2) | EC50 (human CXCR5 [2]) [nM] | EC50 (human CXCR5 [3]) [nM] |
| --- | --- | --- | --- | --- |
| anti-CXCR5 40C01-VH1-Vk3 variant (isotype not stated in the example) (antibody, V domains shown, also called Alexa-Fluor 647 labelled 40C01-VH1-Vk3) VH: EVQLLESGGGLVQPGGSLRLSCAASGFTFSRYVMVWVRQAPGKGLEWVSGISPSGGVTRYAASVKGRFTISRDNSKNTLYLQMNSLRAEDTAVYYCARIRKEMTTISYFFDYWGQGTLVTVSS VL: DIQMTQSPSSLSASVGDRVTITCRASQGVDAYVAWYQQKPGKVPKLLIYSTSTLASGVPSRFSGSGSGTDFTLTISSLQPEDVATYYCQSHNAAVVTFGQGTRLEIK | 1.92 | no binding (tested: 60 µg/ml to 3 ng/ml tested) | 2.26 | – |
| anti-CXCR5 40C01-VH2-Vk3 variant (isotype not stated in the example) (antibody, V domains shown, also called Alexa-Fluor 647 labelled 40C01-VH2-Vk3) VH: EVQLLESGGGLVQPGGSLRLSCAASGFTFSRSVMVWVRQAPGKGLEWVSGISPSGGVTRYAASVKGRFTISRDNSKNTLYLQMNSLRAEDTAVYYCARIRKEKTTISYFFDYWGQGTLVTVSS VL: DIQMTQSPSSLSASVGDRVTITCRASQGVDAYVAWYQQKPGKVPKLLIYSTSTLASGVPSRFSGSGSGTDFTLTISSLQPEDVATYYCQSHNAAVVTFGQGTRLEIK | 7.22 | no binding (tested: 60 µg/ml to 3 ng/ml tested) | – | 4.6 |
